B1: Twister Ribozyme (parent)
chain: AACACUGCCAAUGCCGGUCCCAAGCCCGGAUAAAAGUGGAGGGGGCGG

Variants of: B1
Assay: self-cleavage, relative activity (ratio to wild type); higher = more cleavage; co-transcriptional

| Variant | self-cleavage |
| --- | --- |
| U18A C19U | 0.266 |
| C19A A30C | 0.124 |
| C20A G44C | 0.146 |
| C19U A22G | 0.0788 |
| U18G C21U | 0.0712 |
| U18C U31C | 0.569 |
| C20A C25U | 0.112 |
| C20A C25G | 0.0839 |
| C20G G48C | 0.157 |
| C20G A35G | 0.094 |
| C20G A35U | 0.182 |
| C19A A32G | 0.177 |
| C19A G24C | 0.0773 |
| C19A G29U | 0.207 |
| C19A G29C | 0.0998 |
| C19G A34C | 0.0815 |
| C20G C21U | 0.115 |
| C20G G44A | 0.18 |
| C20G G44U | 0.0685 |
| U18G A32U | 0.0793 |
| U18G A32C | 0.0661 |

| Variant | self-cleavage |
| --- | --- |
| C19U G29C | 0.438 |
| C19U G29U | 0.836 |
| U18C G39C | 0.108 |
| U18C G39A | 0.111 |
| C19A U31A | 0.219 |
| C19A U31C | 0.375 |
| C19U A35C | 1.05 |
| C19G | 0.485 |
| C19U | 1.05 |
| C19A | 0.384 |
| C20G G36C | 0.168 |
| C20G G36U | 0.0382 |
| C19G C25A | 0.0881 |
| U18C G45U | 0.228 |
| C20A A33U | 0.0982 |
| U18G C19G | 0.114 |
| U18G C19A | 0.0794 |
| C19U A30C | 0.591 |
| C19U A30U | 0.82 |
| U18A G47U | 0.174 |
| U18G A35G | 0.0984 |

| Variant | self-cleavage |
| --- | --- |
| U18G A35U | 0.0933 |
| C19U C26G | 0.0861 |
| C19U C26U | 0.0803 |
| C19G C26U | 0.0735 |
| U18C G36A | 0.158 |
| U18C G36U | 0.0651 |
| U18C U37G | 0.155 |
| U18C U37C | 0.0756 |
| C19G U31A | 0.346 |
| C20A G47C | 0.108 |
| C20A G47A | 0.0961 |
| C19U C46G | 0.929 |
| C19U C46A | 0.853 |
| C19U C46U | 0.907 |
| C20G G41U | 0.0931 |
| C19G A23U | 0.11 |
| C20A G43A | 0.118 |
| C20A G43C | 0.0847 |
| C20A G43U | 0.105 |
| C19G A35U | 0.34 |
| C19G A35C | 0.393 |

| Variant | self-cleavage |
| --- | --- |
| C20G C26G | 0.093 |
| C20G C26A | 0.0588 |
| U18A G39A | 0.104 |
| C20G G29C | 0.0469 |
| C19U C21U | 0.0767 |
| C20A A40G | 0.0838 |
| C20A A40C | 0.129 |
| C20A A40U | 0.106 |
| U18A C20U | 0.168 |
| U18A C20G | 0.0551 |
| C20G G43C | 0.101 |
| C20G G43U | 0.0978 |
| C20A G42C | 0.78 |
| C19U A40U | 0.133 |
| C19U A40C | 0.152 |
| U18C A33C | 0.386 |
| C19G A33U | 0.187 |
| C19G A33G | 0.175 |
| C19A C27U | 0.0993 |
| U18C G38U | 0.261 |
| C19G A40C | 0.132 |

From the RNAGym collection of RNA variant scans (doi:10.7554/elife.80360)
